Measured values taken from doi:10.1101/2020.08.11.244863.

Key:
[1] = molecular target: SARS-CoV-2 Nsp15 H235A (SARS-CoV-2); assay: cryo-EM structure
[2] = molecular target: SARS-CoV-2 Nsp15 H235A (SARS-CoV-2); assay: SEC
[3] = molecular target: SARS-CoV-2 Nsp15 H250A (SARS-CoV-2); assay: SEC

| Substance | stoichiometry N [1] | stoichiometry N [2] | stoichiometry N [3] |
| --- | --- | --- | --- |
| SARS-CoV-2 Nsp15 H235A (enzyme) | 6 | 6 |  |
| SARS-CoV-2 Nsp15 H250A (enzyme) |  |  | 6 |
